Laboratory results as given in article PMC8280513, “Marmoset glutathione transferases with ketosteroid isomerase activity” (Biochemistry and Biophysics Reports, 2021).

B1: CjaGST A1-1 (Callithrix jacchus) (protein)
chain: MAEKPKLHYFNARGRMESTRWLLAAAGVEFEEKLIKSPEELDKLRNDGYLMFQQVPMVEIDGMKLVQSRAILNYIASKYNLYGKDIKERALIDMYIEGMADLYEMILLLPFCKPEEKDTKIAMIKEKTKNRYFPAFEKVLKSHGQDYLVGNKLSRADIHLVELLYYVEEVDPSLISSFPLLKALKTRISNLPTVKKFLQPGSPRKPPTDAKTLEEARKIFRF

Key:
CjaGST A1-1 = molecular target: T1, CjaGST A1-1 (Callithrix jacchus, UniProt A0A7G0XAM3); assay: specific activity, spectrophotometric assay; format: biochemical
T1 construct: gene GSTA1; 222 amino acid residues, N-terminal hexahistidine tag
T1 sequence (A0A7G0XAM3 1-222): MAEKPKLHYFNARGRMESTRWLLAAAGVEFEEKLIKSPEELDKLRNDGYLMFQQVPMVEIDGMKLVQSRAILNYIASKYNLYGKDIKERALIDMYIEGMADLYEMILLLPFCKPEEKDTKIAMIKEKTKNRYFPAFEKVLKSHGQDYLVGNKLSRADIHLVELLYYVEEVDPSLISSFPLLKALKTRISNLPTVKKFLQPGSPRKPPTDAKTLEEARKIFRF

purified protein = substrate: [H][C@@]12CC=C3CC(=O)CC[C@]3(C)[C@@]1([H])CC[C@]1(C)C(=O)CC[C@@]21[H]; assay: purified protein; settings: glutathione H-site; Phe111 suggested to hinder steroid binding

Molecule | specific activity (CjaGST A1-1) [µmol/min/mg] | Km (purified protein) [µM] | kcat (purified protein) [s⁻¹] | kcat/Km (purified protein) [M⁻¹ s⁻¹]
O=[N+]([O-])c1ccc(Cl)c([N+](=O)[O-])c1 [CDNB, 1-chloro-2,4-dinitrobenzene] | 26.1 ± 0.59 |  |  | 
S=C=NCCc1ccccc1 [PEITC, phenethyl isothiocyanate] | 8.80 ± 1.95 |  |  | 
B1 |  | 303 ± 34 | 6.89 ± 0.79 | 22700
